# Patent publication US20230134571A1 (INTERNATIONAL AIDS VACCINE INITIATIVE, published 2023)
# Residue numbers refer to the chain shown, from its start.
# B1: ePGDM13 (antibody, V domains shown)
# VH: QAQLVQSGPEVRKPGTSVKVSCKNPGNTLTTYDLHWVRQVPGQGLQWMGWISHEGDKKVIVERFKAKVTIDWDRSTNTAYLQLSGLTSEDTAVYYCAKGSKHRLRDYALYDEDGALNWAVDVDYLANLEFWGQGTAVTVSS
# VL: DIVLTQSPLSLSVTPGESASISCKSSHSLQHGDRNNYLAWYVQKPGRSPQLLLDLASERASGVPDRFSGSGSEKDFTLKISRVETEDVGTYYCMQGRESPWTFGQGTKVDIK
# B2: ePGDM9 (antibody, V domains shown)
# VH: B1 VH
# VL: B1 VL with H27Q, Q30I, L53I, E73R
# B3: ePGDM5 (antibody, V domains shown)
# VH: B1 VH
# VL: B1 VL with I2F, S26D, L53I, E73R, S81D, T85A
# B4: PGDM1400 (antibody, V domains shown)
# VH: B1 VH with A2V, Q3H, V5T, N24A, T30K, Q39S, E89G, E112D, A126S
# VL: B1 VL with I2F, L9H, Q30I, L53I, D54Y, E58S, E73D
# Assays:
# Assay in all cases: cell-based or functional assay
# [1] = target: HIV Env of isolate T251-18 (clade AG) (HIV)
# [2] = target: HIV Env of isolate 0260.v5.c36 (clade A) (HIV)
# [3] = target: HIV Env of isolate 1054_07_TC4_1499 (clade B) (HIV)
# [4] = target: HIV Env of isolate T235-47 (clade AG) (HIV)
# [5] = target: HIV Env of isolate Du156.12 (clade C) (HIV)
# [6] = target: HIV Env of isolate CNE58 (clade BC) (HIV)
# [7] = target: HIV Env of isolate CNE52 (clade BC) (HIV)
# [8] = target: HIV Env of isolate R1166.c01 (clade AE) (HIV)
# [9] = target: HIV Env of isolate 9004SS_A3_4 (clade A) (HIV)
# [10] = target: HIV Env of isolate CNE8 (clade AE) (HIV)
# [11] = target: HIV Env of isolate C3347.c11 (clade AE) (HIV)
# [12] = target: HIV Env of isolate Ce0393_C3 (clade C) (HIV)
# [13] = target: HIV Env of isolate 0330.v4.c3 (clade A) (HIV)
# [14] = target: HIV Env of isolate R3265.c06 (clade AE) (HIV)
# [15] = target: HIV Env of isolate BJOX025000.01.1 (clade AE) (HIV)
# [16] = target: HIV Env of isolate BJOX010000.06.2 (clade AE) (HIV)
# [17] = target: HIV Env of isolate X1254_C3 (clade G) (HIV)
# [18] = target: HIV Env of isolate TRO.11 (clade B) (HIV)
# [19] = target: HIV Env of isolate 6540.v4.c1 (clade AC) (HIV)
# [20] = target: HIV Env of isolate BF1266.431a (clade C) (HIV)
# [21] = target: HIV Env of isolate 249MB10 (clade C) (HIV)
# [22] = target: HIV Env of isolate Ce1172_H1 (clade C) (HIV)
# [23] = target: HIV Env of isolate 191084B7-19 (clade A) (HIV)
# [24] = target: HIV Env of isolate CAP210.2.00.E8 (clade C) (HIV)
Binder,IC50 (µg/ml) with constrains [1],IC80 (µg/ml) with constrains [1],IC50 (µg/ml) with constrains [2],IC80 (µg/ml) with constrains [2],IC50 (µg/ml) with constrains [3],IC50 (µg/ml) with constrains [4],IC80 (µg/ml) with constrains [4],IC50 (µg/ml) with constrains [5],IC50 (µg/ml) with constrains [6],IC50 (µg/ml) with constrains [7],IC50 (µg/ml) with constrains [8],IC80 (µg/ml) with constrains [8],IC50 (µg/ml) with constrains [9],IC80 (µg/ml) with constrains [9],IC50 (µg/ml) with constrains [10],IC80 (µg/ml) with constrains [10],IC50 (µg/ml) with constrains [11],IC80 (µg/ml) with constrains [11],IC50 (µg/ml) with constrains [12],IC50 (µg/ml) with constrains [13],other results
B1,> 100 µg/mL,> 100 µg/mL,0.025 µg/mL,0.098 µg/mL,> 100 µg/mL,0.005 µg/mL,0.019 µg/mL,0.006 µg/mL,0.003 µg/mL,2.83 µg/mL,0.194 µg/mL,0.777 µg/mL,> 100 µg/mL,> 100 µg/mL,0.005 µg/mL,0.022 µg/mL,0.009 µg/mL,0.037 µg/mL,0.006 µg/mL,0.002 µg/mL,IC80 (µg/ml) with constrains [13]: 0.008 µg/mL; IC50 (µg/ml) with constrains [14]: 0.026 µg/mL; IC80 (µg/ml) with constrains [14]: 0.104 µg/mL; IC50 (µg/ml) with constrains [15]: 0.018 µg/mL; IC80 (µg/ml) with constrains [15]: 0.071 µg/mL; IC50 (µg/ml) with constrains [16]: 0.979 µg/mL; IC80 (µg/ml) with constrains [16]: 3.92 µg/mL; IC50 (µg/ml) with constrains [17]: 0.518 µg/mL; IC50 (µg/ml) with constrains [18]: 0.352 µg/mL; IC50 (µg/ml) with constrains [19]: 0.015 µg/mL; IC80 (µg/ml) with constrains [19]: 0.06 µg/mL; IC50 (µg/ml) with constrains [20]: 0.004 µg/mL; IC50 (µg/ml) with constrains [21]: 0.032 µg/mL; IC50 (µg/ml) with constrains [22]: 0.061 µg/mL; IC50 (µg/ml) with constrains [23]: 0.001 µg/mL; IC80 (µg/ml) with constrains [23]: 0.003 µg/mL; IC50 (µg/ml) with constrains [24]: 0.135 µg/mL
B2,> 100 µg/mL,> 100 µg/mL,0.018 µg/mL,0.073 µg/mL,> 100 µg/mL,0.004 µg/mL,0.017 µg/mL,0.004 µg/mL,0.002 µg/mL,1.85 µg/mL,0.215 µg/mL,0.86 µg/mL,> 100 µg/mL,> 100 µg/mL,0.001 µg/mL,0.002 µg/mL,0.003 µg/mL,0.011 µg/mL,0.004 µg/mL,0.003 µg/mL,IC80 (µg/ml) with constrains [13]: 0.01 µg/mL; IC50 (µg/ml) with constrains [14]: 0.019 µg/mL; IC80 (µg/ml) with constrains [14]: 0.078 µg/mL; IC50 (µg/ml) with constrains [15]: 0.018 µg/mL; IC80 (µg/ml) with constrains [15]: 0.072 µg/mL; IC50 (µg/ml) with constrains [16]: 0.293 µg/mL; IC80 (µg/ml) with constrains [16]: 1.17 µg/mL; IC50 (µg/ml) with constrains [17]: 0.178 µg/mL; IC50 (µg/ml) with constrains [18]: 0.163 µg/mL; IC50 (µg/ml) with constrains [19]: 0.008 µg/mL; IC80 (µg/ml) with constrains [19]: 0.031 µg/mL; IC50 (µg/ml) with constrains [20]: 0.002 µg/mL; IC50 (µg/ml) with constrains [21]: 0.007 µg/mL; IC50 (µg/ml) with constrains [22]: 0.027 µg/mL; IC50 (µg/ml) with constrains [23]: 0.002 µg/mL; IC80 (µg/ml) with constrains [23]: 0.006 µg/mL; IC50 (µg/ml) with constrains [24]: 0.055 µg/mL
B3,> 100 µg/mL,> 100 µg/mL,0.021 µg/mL,0.084 µg/mL,> 100 µg/mL,0.005 µg/mL,0.022 µg/mL,0.006 µg/mL,0.004 µg/mL,6.14 µg/mL,0.166 µg/mL,0.664 µg/mL,> 100 µg/mL,> 100 µg/mL,0.001 µg/mL,0.003 µg/mL,0.005 µg/mL,0.021 µg/mL,0.016 µg/mL,0.003 µg/mL,IC80 (µg/ml) with constrains [13]: 0.01 µg/mL; IC50 (µg/ml) with constrains [14]: 0.028 µg/mL; IC80 (µg/ml) with constrains [14]: 0.113 µg/mL; IC50 (µg/ml) with constrains [15]: 0.018 µg/mL; IC80 (µg/ml) with constrains [15]: 0.072 µg/mL; IC50 (µg/ml) with constrains [16]: 0.536 µg/mL; IC80 (µg/ml) with constrains [16]: 2.15 µg/mL; IC50 (µg/ml) with constrains [17]: 0.217 µg/mL; IC50 (µg/ml) with constrains [18]: 0.315 µg/mL; IC50 (µg/ml) with constrains [19]: 0.012 µg/mL; IC80 (µg/ml) with constrains [19]: 0.05 µg/mL; IC50 (µg/ml) with constrains [20]: 0.004 µg/mL; IC50 (µg/ml) with constrains [21]: 0.011 µg/mL; IC50 (µg/ml) with constrains [22]: 0.016 µg/mL; IC50 (µg/ml) with constrains [23]: 0.001 µg/mL; IC80 (µg/ml) with constrains [23]: 0.005 µg/mL; IC50 (µg/ml) with constrains [24]: 0.057 µg/mL
B4,> 100 µg/mL,> 100 µg/mL,0.035 µg/mL,0.14 µg/mL,> 100 µg/mL,0.011 µg/mL,0.044 µg/mL,0.006 µg/mL,0.003 µg/mL,> 100 µg/mL,1.48 µg/mL,5.92 µg/mL,> 100 µg/mL,> 100 µg/mL,0.001 µg/mL,0.003 µg/mL,0.015 µg/mL,0.061 µg/mL,0.009 µg/mL,0.004 µg/mL,IC80 (µg/ml) with constrains [13]: 0.016 µg/mL; IC50 (µg/ml) with constrains [14]: 0.019 µg/mL; IC80 (µg/ml) with constrains [14]: 0.075 µg/mL; IC50 (µg/ml) with constrains [15]: 0.055 µg/mL; IC80 (µg/ml) with constrains [15]: 0.22 µg/mL; IC50 (µg/ml) with constrains [16]: 0.871 µg/mL; IC80 (µg/ml) with constrains [16]: 3.48 µg/mL; IC50 (µg/ml) with constrains [17]: 45.4 µg/mL; IC50 (µg/ml) with constrains [18]: 0.206 µg/mL; IC50 (µg/ml) with constrains [19]: 0.007 µg/mL; IC80 (µg/ml) with constrains [19]: 0.026 µg/mL; IC50 (µg/ml) with constrains [20]: 0.006 µg/mL; IC50 (µg/ml) with constrains [21]: 0.021 µg/mL; IC50 (µg/ml) with constrains [22]: 0.218 µg/mL; IC50 (µg/ml) with constrains [23]: 0.002 µg/mL; IC80 (µg/ml) with constrains [23]: 0.008 µg/mL; IC50 (µg/ml) with constrains [24]: 0.33 µg/mL
